Series [1] deals with T1, MaeR D54A D54A (Lacticaseibacillus (Lactobacillus) casei BL23), ORF:6e0afda8.
T1 sequence: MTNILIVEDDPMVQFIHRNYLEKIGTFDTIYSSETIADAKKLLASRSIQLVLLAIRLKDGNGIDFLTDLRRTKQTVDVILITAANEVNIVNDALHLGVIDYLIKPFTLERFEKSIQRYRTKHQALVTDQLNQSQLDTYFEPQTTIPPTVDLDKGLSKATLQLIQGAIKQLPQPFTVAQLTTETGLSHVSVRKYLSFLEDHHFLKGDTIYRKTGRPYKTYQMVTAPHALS
The series is described as follows: EMSA. The following applies: EMSA: 15 ul of 2.5 mM Tris-HCl pH 7.5, 100 mM NaCl, 25 mM MgCl2, 0.25 mM EDTA, 0.25 mM DTT, 10% glycerol, 1.5 ug salmon sperm DNA, 100 ng DNA, 62-375 ng ….

Series [2] relates to T2, MaeR D54N D54N (Lacticaseibacillus (Lactobacillus) casei BL23), ORF:6e0afda8.
T2 sequence: T1 sequence with A54N
Nature of the series: EMSA. The following applies: EMSA: 15 ul of 2.5 mM Tris-HCl pH 7.5, 100 mM NaCl, 25 mM MgCl2, 0.25 mM EDTA, 0.25 mM DTT, 10% glycerol, 1.5 ug salmon sperm DNA, 100 ng DNA, 62-375 ng ….

Series [3] deals with T3, MaeR full length (MaeRFL) (Lacticaseibacillus (Lactobacillus) casei BL23), ORF:6e0afda8.
T3 sequence: T1 sequence with A54D
Nature of the series: EMSA. Conditions: EMSA: 15 ul of 2.5 mM Tris-HCl pH 7.5, 100 mM NaCl, 25 mM MgCl2, 0.25 mM EDTA, 0.25 mM DTT, 10% glycerol, 1.5 ug salmon sperm DNA, 100 ng DNA, 62-375 ng ….

Series [4] addresses recombinant complete cytoplasmic portion of MaeK (MaeKC) (Lactobacillus casei). Nature of the series: SEC; gel filtration chromatography of MaeKC (Superdex200 16/60); single peak.

Changes are numbered by the printed parent chain.

Turning to “CGTTGATTTGTTGGGTGTAACCGTCTTGTTCTCCATGTTTCCTTACCCCCAATCTTTTGTTACTTACAGCATATTGTAAGCGCTTCATCAGGGGAAGATTATTTAACTTATTAAACCATAAACCCATTTATTTAAGCGATTGTTTTACTATTCACAAGATGGTTTCTCTACTGAACAGGAGTATGATCATGAAAATAAAAGGATGGCGGCTATGGGGCT (double strand) [mae promoter (maeP-maeK intergenic region, 219 bp)]”, the binding result in series [1] is reported as “no binding”; in series [2], “binds”; in series [3], “binds”.
For the substance “recombinant complete cytoplasmic portion of MaeK (MaeKC) (domain or fragment)”, in series [4], the stoichiometry N (commonly a count of units in the complex or per binding partner) was found to be 2.

For the origin of these results see article PMC5457438.
